The target of assay [1] is MDX1388.
The target of assay [2] is Clostridium difficile toxin B (whole toxin B) (Clostridium difficile).
For assay [3] the target is unchanged. The assay is described as follows: cell-based or functional assay.

On to “Clostridium difficile toxin B (whole toxin B)”, for which, in assay [1], the IC50 (read off the curve) came out at 0.05 µg/mL.

In assay [2], MDX1388 (antibody) displayed a Kd of 3.84 nM, a koff of 0.000139 s⁻¹ and a kon of 36200 M⁻¹ s⁻¹. For the same substance, the Mean EC50, neutralization of TcdB on HT-29 cells (xCELLigence) in assay [3] amounted to 125 µg/mL.

What is called Kd is a measure of binding affinity in units of concentration. Higher therefore signals a looser complex. By koff is commonly meant a measure of how fast the partners let go of each other. Read a low koff as a long-lived complex. Broadly, the kon is a measure of how fast the partners come together. The low end stands for slow association, the high end for fast association.

For the origin of these results see US20150290319A1.
